T1: I domain of α11β1 (Homo sapiens, UniProt Q9UKX5)
T1 construct: An in-house generated I domain of α11β1 was used; made in house
T1 sequence (Q9UKX5 164-345 limits assumed): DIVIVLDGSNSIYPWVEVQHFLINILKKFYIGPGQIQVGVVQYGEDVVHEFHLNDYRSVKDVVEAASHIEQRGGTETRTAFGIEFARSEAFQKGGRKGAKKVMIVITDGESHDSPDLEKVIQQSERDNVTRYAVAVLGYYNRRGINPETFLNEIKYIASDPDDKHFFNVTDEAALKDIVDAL


Experiments:
[1] = test system: human pulmonary fibroblasts (HPFs); test: FACS antibody binding to human pulmonary fibroblasts; conditions: binding Yes/No
myofibroblasts (MF) = test: FACS antibody binding to myofibroblasts; set-up: species or system human; conditions: binding Yes/No
In short: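 Human pulmonary fibroblasts, serum-starved 24 h then TGFβ-1-treated 72 h to give myofibroblasts, were blocked with heat-inactivated FBS and stained with anti-α11 antibodies, then PE secondary, 30 min each at 4 °C, before 1% PFA fixation. Binding read by flow cytometry as PE geometric MFI of single cells.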

[2] = test system: Human Pulmonary Fibroblasts; test: Fibroblast-to-Myofibroblasts Transition (FMT), αSMA expression; format: cell-based; conditions: Yes/No
In short: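 Cells seeded at 20,000/well, serum-starved 24 h, then given TGFβ-1 with or without anti-α11 antibodies for 48 h; polyclonal anti-α11 and isotype IgG served as controls. Fixed, permeabilized cells were stained for αSMA and analysed by flow cytometry (single-cell gMFI). Values are normalized to untreated control as % inhibition.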

[3] = test system: CHO-K1 cells expressing human α11; test: Cell adhesion inhibition (xCelligence), type I collagen; format: cell-based; conditions: Yes/No
In short: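 CHO-K1 cells expressing human α11 (0.6×10^6 cells/mL) were preincubated with mAbs across a concentration range for 20 min at 37° C, then seeded on wells coated with 100 ng/mL type I collagen and blocked with 3% BSA. Impedance-based adhesion was recorded over 6 h, and maximum adhesion was compared with untreated control.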

I domain of α11β1 = molecular target: T1, I domain of α11β1; test: ELISA binding to in-house generated I domain of α11β1; conditions: Yes/No
In short: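 Plate-coated antigen (0.25 μg/mL, overnight 4° C) probed with antibody dilution series 1 h at room temperature, then biotinylated anti-IgG and streptavidin-HRP, 1 h each. TMB substrate 5 min, stopped, absorbance at 450 nm; in-house I domain of α11β1 used as target.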

Row | HPF FACS [1] | MF FACS (myofibroblasts (MF)) | I Domain binding (I domain of α11β1) | Molecule | Inhibition of FMT [2] | Inhibition of CHO-K1 adhesion to collagen [3]
1 | No | Yes | No | 5D7: rabbit anti-α11β1 mAb; heavy chain SEQ ID NO: 191, light chain SEQ ID NO: 192 (antibody) heavy: METGLRWLLLVAVLKGVQCQEQLVESGGGLVQPEGSLTLTCKASGFDFSSNAMCWVRQAPGKGLEWIACIYNGDGSTYYASWVNGRFTISKTSSTTVTLQMTSLTAADTATYFCARGLSNWNRDNLWGPGTLVTVSSGQPKAPSVFPLAPCCGDTPSSTVTLGCLVKGYLPEPVTVTWNSGTLTNGVRTFPSVRQSSGLYSLSSVVSVTSSSQPVTCNVAHPATNTKVDKTVAPSTCSKPMCPPPELPGGPSVFIFPPKPKDTLMISRTPEVTCVVVDVSQDDPEVQFTWYINNEQVRTARPPLREQQFNSTIRVVSTLPIAHQDWLRGKEFKCKVHNKALPAPIEKTISKARGQPLEPKVYTMGPPREELSSRSVSLTCMINGFYPSDISVEWEKNGKAEDNYKTTPTVLDSDGSYFLYSKLSVPTSEWQRGDVFTCSVMHEALHNHYTQKSISRSPGK light: MDTRAPTQLLGLLLLWLPGATFAQVLTQTPSSVSAAVGGTATINCQASQSLYSPKNLAWYQQTPGQPPKLLIYSASKLASGVPSRFKGSGSGTQFTLTISGVQCDDAAIYYCQGEFSCTTAACFAFGGGTEVVVKGDPVAPTVLIFPPAADQVATGTVTIVCVANKYFPDVTVTWEVDGTTQTTGIENSKTPQNSADCTYNLSSTLTLTSTQYNSHKEYTCKVTQGTTSVVQSFNRGDC | No | Yes
2 | No | Yes | No | 5A7: rabbit anti-α11β1 mAb; heavy chain SEQ ID NO: 193, light chain SEQ ID NO: 194 (antibody) heavy: METGLRWLLLVAVLKGVQCQSLEESGGGLVQPEGSLTLACTASGFSFSSYYYICWVRQAPGTGLEWIGCINTGSDDTHYASWLKGRFTFSKASSTTLTLQMTSLTAADTATYFCARSSGSSDDAYDLWGPGTLVTVSSGQPKAPSVFPLAPCCGDTPSSTVTLGCLVKGYLPEPVTVTWNSGTLTNGVRTFPSVRQSSGLYSLSSVVSVTSSSQPVTCNVAHPATNTKVDKTVAPSTCSKPMCPPPELPGGPSVFIFPPKPKDTLMISRTPEVTCVVVDVSQDDPEVQFTWYINNEQVRTARPPLREQQFNSTIRVVSTLPIAHQDWLRGKEFKCKVHNKALPAPIEKTISKARGQPLEPKVYTMGPPREELSSRSVSLTCMINGFYPSDISVEWEKNGKAEDNYKTTPTVLDSDGSYFLYSKLSVPTSEWQRGDVFTCSVMHEALHNHYTQKSISRSPGK light: MDTRAPTQLLGLLLLWLPGARCDVVMTQTPASVSEPVGGAVTIKCQASQSIGSNLAWYQHKPGQPPKLLIYFASSLASGVSSRFKGGRSGTQFTLTISDLECADAATYYCHCTYYPLSYVTFGGGTEVVVKGDPVAPTVLIFPPAADQVATGTVTIVCVANKYFPDVTVTWEVDGTTQTTGIENSKTPQNSADCTYNLSSTLTLTSTQYNSHKEYTCKVTQGTTSVVQSFNRGDC | No | Yes

From patent US12460006B2, “Antibodies against integrin alpha 11 beta 1” (Momenta Pharmaceuticals, Inc., priority 2019, dated 2025)
